As usually defined, the stoichiometry N is a count of units in the complex or per binding partner.

We go through one substance from PMC9364107.

For the test, the target named is SF3B1 residues 147–462 (ULM-containing N-terminal region) (human) (UniProt O75533). As to the kind of experiment: ITC. For orientation: ITC needs no label: the signal is the heat of the interaction.
SF3B1 residues 147–462 (ULM-containing N-terminal region) (human), sequence (O75533 147-462): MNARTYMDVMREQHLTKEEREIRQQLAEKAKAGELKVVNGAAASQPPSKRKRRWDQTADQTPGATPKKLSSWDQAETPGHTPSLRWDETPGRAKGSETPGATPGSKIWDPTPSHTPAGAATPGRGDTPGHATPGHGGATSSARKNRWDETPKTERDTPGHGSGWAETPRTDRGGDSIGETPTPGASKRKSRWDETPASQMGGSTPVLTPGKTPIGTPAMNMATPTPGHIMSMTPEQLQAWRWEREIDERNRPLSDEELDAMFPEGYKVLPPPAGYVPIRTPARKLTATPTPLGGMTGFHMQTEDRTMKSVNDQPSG

The substance “U2AF2^12UL (nearly full-length U2AF2, residues 141–471) (domain or fragment)” gave a stoichiometry N of 2.
